Reference: patent US20240148882A1 (University of California, published 2024)

B1: single-domain camelid (VHH) anti-VEGF antibody, unconjugated (VHH)
VHH: DVQLVESGGGLVQPGGSLRLSCAASGRTFSSYSMGWFRQAPGKEREFVVAISKGGYKYDAVSLEGRFTISRDNAKNTVYLQINSLRPEDTAVYYCASSRAYGSSRLRLADTYEYWGQGTLVTVSS
B2: soluble fms-like tyrosine kinase-1 (sFlt), unconjugated (receptor, UniProt P17948 27-328, looked up)
chain: SKLKDPELSLKGTQHIMQAGQTLHLQCRGEAAHKWSLPEMVSKESERLSITKSACGRNGKQFCSTLTLNTAQANHTGFYSCKYLAVPTSKKKETESAIYIFISDTGRPFVEMYSEIPEIIHMTEGRELVIPCRVTSPNITVTLKKFPLDTLIPDGKRIIWDSRKGFIISNATYKEIGLLTCEATVNGHLYKTNYLTHRQTNTIIDVQISTPRPVKLLRGHTLVLNCTATTPLNTRVQMTWSYPDEKNKRASVRRRIDQSNSHANIFYSVLTIDKMQNKDKGLYTCRVRSGPSFKSVNTSVHI
notes: domain: first 3 Ig-like extracellular domains; Expressed in High Five insect cells, about 50 kDa; also called recombinant sFlt; soluble Flt-1 receptor; not shown: tag implied by Ni-NTA purification, not described for the tested protein (the ex)
B3: mvsFlt 1 MDa LCR (multivalent sFlt-hyaluronic acid conjugate, low conjugation ratio) (other, UniProt P17948 27-328, looked up)
chain: B2 chain
modifications: thiolated with 2-iminothiolane and linked through EMCH maleimide to 1 MDa hyaluronic acid
notes: domain: first 3 Ig-like extracellular domains; Protein-polymer conjugate; 10:1 sFlt:HyA feed ratio; final sFlt:HyA 5.2 by SEC-MALS; not shown: tag implied by Ni-NTA purification, not described
B4: mvsFlt 1 MDa HCR (multivalent sFlt-hyaluronic acid conjugate, high conjugation ratio) (other, UniProt P17948 27-328, looked up)
chain: B2 chain
modifications: thiolated with 2-iminothiolane and linked through EMCH maleimide to 1 MDa hyaluronic acid
notes: domain: first 3 Ig-like extracellular domains; Protein-polymer conjugate; 30:1 sFlt:HyA feed ratio; final sFlt:HyA 14.1 by SEC-MALS; not shown: tag implied by Ni-NTA purification, not described
B5: mvsFlt 300 kDa LCR (multivalent sFlt-hyaluronic acid conjugate, low conjugation ratio) (other, UniProt P17948 27-328, looked up)
chain: B2 chain
modifications: thiolated with 2-iminothiolane and linked through EMCH maleimide to 300 kDa hyaluronic acid
notes: domain: first 3 Ig-like extracellular domains; Protein-polymer conjugate; 10:1 sFlt:HyA feed ratio; final sFlt:HyA 7.9 by SEC-MALS; not shown: tag implied by Ni-NTA purification, not described
B6: mvsFlt 300 kDa HCR (multivalent sFlt-hyaluronic acid conjugate, high conjugation ratio) (other, UniProt P17948 27-328, looked up)
chain: B2 chain
modifications: thiolated with 2-iminothiolane and linked through EMCH maleimide to 300 kDa hyaluronic acid
notes: domain: first 3 Ig-like extracellular domains; Protein-polymer conjugate; 30:1 sFlt:HyA feed ratio; final sFlt:HyA 15.4 by SEC-MALS; not shown: tag implied by Ni-NTA purification, not described
B7: mvsFlt 650 kDa HCR (multivalent sFlt-hyaluronic acid conjugate, high conjugation ratio) (other, UniProt P17948 27-328, looked up)
chain: B2 chain
modifications: thiolated with 2-iminothiolane and linked through EMCH maleimide to 650 kDa hyaluronic acid
notes: domain: first 3 Ig-like extracellular domains; Protein-polymer conjugate; 30:1 sFlt:HyA feed ratio; final sFlt:HyA 17.1 by SEC-MALS; not shown: tag implied by Ni-NTA purification, not described
B8: mvsFlt 650 kDa LCR (multivalent sFlt-hyaluronic acid conjugate, low conjugation ratio) (other, UniProt P17948 27-328, looked up)
chain: B2 chain
modifications: thiolated with 2-iminothiolane and linked through EMCH maleimide to 650 kDa hyaluronic acid
notes: domain: first 3 Ig-like extracellular domains; Protein-polymer conjugate; 10:1 sFlt:HyA feed ratio; final sFlt:HyA 5.3 by SEC-MALS; also called 650 kDa LCR mvsFlt; not shown: tag implied by Ni-NTA purification, not described
B9: conjugated multivalent VHH anti-VEGF antibody (28 VHH per 860 kDa hyaluronic acid) (other)
VHH: SNADVQLVESGGGLVQPGGSLRLSCAASGRTFSSYSMGWFRQAPGKEREFVVAISKGGYKYDAVSLEGRFTISRDNAKNTVYLQINSLRPEDTAVYYCASSRAYGSSRLRLADTYEYWGQGTLVTVSSSPSTPPTPSPSTPPGGCDDDDKHHHHHH
modifications: covalently conjugated to 860 kDa hyaluronic acid
B10: anti-VEGF VHH-CMC conjugate (~17 VHH per ~700 kDa carboxymethylcellulose) (other)
VHH: B9 VHH
modifications: covalently conjugated to ~700 kDa carboxymethylcellulose
B11: matrix metalloproteinase-7 (MMP-7) (protein)
chain: YSLFPNSPKWTSKVVTYRIVSYTRDLPHITVDRLVSKALNMWGKEIPLHFRKVVWGTADIMIGFARGAHGDSYPFDGPGNTLAHAFAPGTGLGGDAHFDEDERWTDGSSLGINFLYAATHELGHSLGMGHSSDPNAVMYPTYGNGDPQNFKLSQDDIKGIQKLYGKRSNSRKK
B12: conjugated multivalent scFv anti-VEGF antibody (31 scFv per 860 kDa hyaluronic acid) (other)
scFv: MEIVMTQSPSTLSASVGDRVIITCQASEIIHSWLAWYQQKPGKAPKLLIYLASTLASGVPSRFSGSGSGAEFTLTISSLQPDDFATYYCQNVYLASTNGANFGQGTKLTVLGGGGGSGGGGSGGGGSGGGGSEVQLVESGGGLVQPGGSLRLSCTASGFSLTDYYYMTWVRQAPGKGLEWVGFIDPDDDPYYATWAKGRFTISRDNSKNTLYLQMNSLRAEDTAVYYCAGGDHNSGWGLDIWGQGTLVTVSSSPSTPPTPSPSTPPGGCDDDDKHHHHHH
modifications: covalently conjugated to 860 kDa hyaluronic acid
B13: single-chain variable fragment (scFv) anti-VEGF antibody, unconjugated (scFv)
scFv: B12 scFv

Legend:
[1] = target: T1, VEGF165 (human, UniProt P15692 27-191); test: competition ELISA (unbound VEGF)
T1 chain: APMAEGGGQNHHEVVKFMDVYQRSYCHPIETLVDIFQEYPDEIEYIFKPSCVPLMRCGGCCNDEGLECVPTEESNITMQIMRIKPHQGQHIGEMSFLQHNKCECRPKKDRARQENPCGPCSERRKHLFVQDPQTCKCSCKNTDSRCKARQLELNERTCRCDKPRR

[2] = target: T1, VEGF165; test: ELISA
[3] = target: T2, VEGF165 (human, UniProt P15692-4 27-191); test: cell-based or functional assay
[4] = target: T2, VEGF165; test: binding competition ELISA (VEGF165 Quantikine): free VEGF165 captured by the plate antibody
Method: The mvsFlt conjugates were analyzed using a VEGF₁₆₅ Quantikine Sandwich ELISA (R&D Systems) to examine the effect of HyA conjugation on sFlt inhibition of VEGF₁₆₅. The assay was carried out according to the manufacturer's instructions. Briefly, VEGF₁₆₅ was added to PBS with varying concentrations of sFlt or mysFlt. Free VEGF₁₆₅ that bound to the capture antibodies on the plate surface were detected using a horseradish peroxidase conjugated detection antibody and quantified using a spectrophotometer at 450 nm.

[5] = target: T1, VEGF165; test: competition ELISA (unbound VEGF); multivalent HyA conjugate
[6] = target: T1, VEGF165; test: ELISA; multivalent CMC conjugate
[7] = target: soluble fms-like tyrosine kinase-1 (sFlt), unconjugated (UniProt P17948); test: cell-based or functional assay
[8] = target: T3, mvsFlt 650 kDa LCR (multivalent sFlt-hyaluronic acid conjugate, low conjugation ratio), P17948
T3 chain: B2 chain

Binder	IC50, HUVEC Survival [3] [µg/mL]	IC50 [4] [µg/mL]	also measured
B1	–	–	IC50 [1]: 758 nM; IC50 [2]: 761 nM
B2	0.0393	0.0038	–
B3	0.0449	0.0022	–
B4	0.0454	0.0033	–
B5	0.0469	0.0045	–
B6	0.0444	0.0047	–
B7	0.0432	0.002	–
B8	0.0417	0.0039	–
B9	–	–	IC50 [5]: 812 nM
B10	–	–	IC50 [6]: 8800 nM
B11	–	–	protein remaining detectable after 12 h with MMP-7 at 1:1 molar ratio of MMP-7 to sFlt (SDS-PAGE, silver stain) [7]: 6.8%; protein remaining detectable after 12 h with MMP-7 at 1:4 molar ratio of MMP-7 to sFlt (SDS-PAGE, silver stain) [7]: 34%; protein remaining detectable after 12 h with MMP-7 at 1:1 molar ratio of MMP-7 to sFlt (SDS-PAGE, silver stain) [8]: 34.8±1.8% of mvsFlt; protein remaining detectable after 12 h with MMP-7 at 1:4 molar ratio of MMP-7 to sFlt (SDS-PAGE, silver stain) [8]: detectable mvsFlt at 74.8±4.9%
B12	–	–	IC50 [5]: 47.7 nM
B13	–	–	IC50 [1]: 89.8 nM
